This is an account of results in US20260355338 (published 2026).

T1: human EpCAM-mFc (human)
T1 chain: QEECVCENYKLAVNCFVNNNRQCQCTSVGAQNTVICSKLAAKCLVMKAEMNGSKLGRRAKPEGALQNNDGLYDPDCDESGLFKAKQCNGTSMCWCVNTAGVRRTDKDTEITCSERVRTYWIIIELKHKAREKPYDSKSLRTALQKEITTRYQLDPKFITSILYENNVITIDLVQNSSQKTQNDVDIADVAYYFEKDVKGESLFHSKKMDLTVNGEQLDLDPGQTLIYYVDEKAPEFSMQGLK

B1: EP101-3014 (1565-Y) (antibody)
chain 1: QVQLVQSGAEVKKPGASVKVSCKASGYTFTNYYIHWVRQAPGQRLEYIGWIYPGNVYIQYNEKFKGRATLTADKSASTAYMELSSLRSEDTAVYYCARDGYWFAYWGQGTLVTVSS
chain 2: QGQSGQGSWCHSATDTILPCSNGGGSSGGAVGLLAPPGGLSGRSDNIGGSDIVLTQTPLSLSVTPGQPASISCRSSRSLLHSDGFTYLYWFLQKPGQSPQLLIYQTSNLASGVPDRFSSSGSGTDFTLKISRVEAEDVGVYYCAQNLELPNTFGQGTKLEIK
B2: EP04-3014 (1565-Y) (antibody)
chain 1: QVQLVQSGAEVKKPGASVKVSCKASGYTFTNYYIHWVRQAPGQRLEYIGWIYPGNVYIQYNEKFKGRATLTADKSASTAYMELSSLRSEDTAVYYCARDGYWFAYWGQGTLVTVSS
chain 2: QGQSGQGWCPRLFDRPSMGCPTGGGSSGGAVGLLAPPGGLSGRSDNIGGSDIVLTQTPLSLSVTPGQPASISCRSSRSLLHSDGFTYLYWFLQKPGQSPQLLIYQTSNLASGVPDRFSSSGSGTDFTLKISRVEAEDVGVYYCAQNLELPNTFGQGTKLEIK
B3: EP05-3014 (1361-H) (antibody)
chain 1: QVQLVQSGAEVKKPGASVKVSCKASGYTFTNYHIHWVRQAPGQRLEYIGWIYPGNVYIQYNEKFKGRATLTADKSASTAYMELSSLRSEDTAVYYCARDGPWFAYWGQGTLVTVSS
chain 2: QGQSGQGWWPPCQGGAWCEQRIGGGSSGGAVGLLAPPGGLSGRSDNIGGSDIVLTQTPLSLSVTPGQPASISCRSSRSLLHSDGFTYLYWFLQKPGQSPQLLIYQTSNLASGVPDRFSSSGSGTDFTLKISRVEAEDVGVYYCAQNLELPNTFGQGTKLEIK
B4: EP109-3014 (1361-H) (antibody)
chain 1: QVQLVQSGAEVKKPGASVKVSCKASGYTFTNYHIHWVRQAPGQRLEYIGWIYPGNVYIQYNEKFKGRATLTADKSASTAYMELSSLRSEDTAVYYCARDGPWFAYWGQGTLVTVSS
chain 2: QGQSGQGPNTCMSERRICSLTYGGGSSGGAVGLLAPPGGLSGRSDNIGGSDIVLTQTPLSLSVTPGQPASISCRSSRSLLHSDGFTYLYWFLQKPGQSPQLLIYQTSNLASGVPDRFSSSGSGTDFTLKISRVEAEDVGVYYCAQNLELPNTFGQGTKLEIK
B5: EP01-3014 (1565-Y) (antibody)
chain 1: QVQLVQSGAEVKKPGASVKVSCKASGYTFTNYYIHWVRQAPGQRLEYIGWIYPGNVYIQYNEKFKGRATLTADKSASTAYMELSSLRSEDTAVYYCARDGYWFAYWGQGTLVTVSS
chain 2: QGQSGQGPLMTCSDYYTCKNNLGGGSSGGAVGLLAPPGGLSGRSDNIGGSDIVLTQTPLSLSVTPGQPASISCRSSRSLLHSDGFTYLYWFLQKPGQSPQLLIYQTSNLASGVPDRFSSSGSGTDFTLKISRVEAEDVGVYYCAQNLELPNTFGQGTKLEIK
B6: EP11-3014 (1565-Y) (antibody)
chain 1: QVQLVQSGAEVKKPGASVKVSCKASGYTFTNYYIHWVRQAPGQRLEYIGWIYPGNVYIQYNEKFKGRATLTADKSASTAYMELSSLRSEDTAVYYCARDGYWFAYWGQGTLVTVSS
chain 2: QGQSGQGFICPTLYDRPHCMHTGGGSSGGAVGLLAPPGGLSGRSDNIGGSDIVLTQTPLSLSVTPGQPASISCRSSRSLLHSDGFTYLYWFLQKPGQSPQLLIYQTSNLASGVPDRFSSSGSGTDFTLKISRVEAEDVGVYYCAQNLELPNTFGQGTKLEIK
B7: EP03-3014 (1565-Y) (antibody)
chain 1: QVQLVQSGAEVKKPGASVKVSCKASGYTFTNYYIHWVRQAPGQRLEYIGWIYPGNVYIQYNEKFKGRATLTADKSASTAYMELSSLRSEDTAVYYCARDGYWFAYWGQGTLVTVSS
chain 2: QGQSGQGHYCHSRTDTITHCNAGGGSSGGAVGLLAPPGGLSGRSDNIGGSDIVLTQTPLSLSVTPGQPASISCRSSRSLLHSDGFTYLYWFLQKPGQSPQLLIYQTSNLASGVPDRFSSSGSGTDFTLKISRVEAEDVGVYYCAQNLELPNTFGQGTKLEIK

For this assay, the target named is T1, human EpCAM-mFc. Briefly: ELISA. Background: ELISA stands for enzyme-linked immunosorbent assay.
B1 yielded a Kd of 389 nM.

B2 registered a Kd of 26.9 nM.

B3 displayed a Kd of 0.46 nM.

Regarding B4, binding was characterised by a dissociation constant (Kd) of 512 nM.

On to B5, for which the affinity, expressed as Kd, was 0.66 nM.

Molecule B6 gave a Kd of 38 nM.

Molecule B7 displayed a Kd of 64.4 nM.

By Kd is commonly meant the equilibrium constant for the complex coming apart. A low value points to a tighter complex.
